Results taken from article PMC8639918, “Mechanism of phosphate sensing and signaling revealed by rice SPX1-PHR2 complex structure” (Nature Communications, 2021).
Numbering of substitutions follows the chain as printed. In names and notes the source's numbering stands. Several values for one entry are separate records, joined by “and”; a condition that tells them apart may be missing. Equal values may be shown once. Each block holds one binder with its values, some of them ahead of it.

Columns and labels:
[1] = target: T1, SPX1^1–198 (rice, UniProt Q69XJ0 1-198); test: SEC; gel filtration of SPX1^1–198 and PHR2^248–380 and their mutants, buffer C (20 mM Tris/HCl pH 8.0, 200 mM NaCl, 1 mM TCEP) with or without InsP6 as the methods put it; samples incubated at 4 °C for 12 h (Figs. 2c, 5b, Supplementary Fig. 3a–d); settings: both partners purified
T1 construct: SPX1 (OsSPX1), rice, residues 1-198; also called SPX1 (residues 1–198); not shown: His10, N-terminal, cleaved; MsyB, N-terminal, cleaved
T1 sequence (looked up): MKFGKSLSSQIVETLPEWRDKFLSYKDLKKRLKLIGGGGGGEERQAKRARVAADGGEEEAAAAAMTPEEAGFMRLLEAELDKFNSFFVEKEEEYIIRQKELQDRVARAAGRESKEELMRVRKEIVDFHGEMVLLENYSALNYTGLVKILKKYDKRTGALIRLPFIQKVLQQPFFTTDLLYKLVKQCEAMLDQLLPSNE

[2] = target: T2, SPX1^1–198 E135A (rice, UniProt Q69XJ0 1-198, E135A); test: as above; settings: both partners purified
T2 construct: SPX1 (OsSPX1), rice, residues 1-198; not shown: His10, N-terminal, cleaved; MsyB, N-terminal, cleaved
T2 sequence (looked up): T1 sequence (looked up) with E135A

[3] = target: T3, SPX1^1–198 Y180A (rice, UniProt Q69XJ0 1-198, Y180A); test: as above; settings: both partners purified
T3 construct: SPX1 (OsSPX1), rice, residues 1-198; not shown: His10, N-terminal, cleaved; MsyB, N-terminal, cleaved
T3 sequence (looked up): T1 sequence (looked up) with Y180A

[4] = target: the molecule itself; test: SEC-MALS; Superdex 200 Increase 10/300 GL, buffer C (20 mM Tris/HCl pH 8.0, 200 mM NaCl, 1 mM TCEP) without InsP6, 2–3 mg/ml, 4 °C
[5] = target: T4, SPX1^1–259 (C-terminally truncated fragment of rice SPX1) (rice, UniProt Q69XJ0 1-259); test: SEC-MALS; Superdex 200 Increase 10/300 GL, buffer C (20 mM Tris/HCl pH 8.0, 200 mM NaCl, 1 mM TCEP) with 1 mM InsP6, 2–3 mg/ml, 4 °C; settings: both partners purified
T4 construct: also called OsSPX1; not shown: His10, N-terminal, cleaved; MsyB, N-terminal, cleaved
T4 sequence (looked up): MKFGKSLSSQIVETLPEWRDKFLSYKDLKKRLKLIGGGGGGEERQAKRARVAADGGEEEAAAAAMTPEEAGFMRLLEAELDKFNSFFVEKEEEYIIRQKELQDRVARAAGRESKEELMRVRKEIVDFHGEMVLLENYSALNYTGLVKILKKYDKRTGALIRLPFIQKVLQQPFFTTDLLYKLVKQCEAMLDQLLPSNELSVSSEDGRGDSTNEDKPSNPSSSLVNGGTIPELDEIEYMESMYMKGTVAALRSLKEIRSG

[6] = target: T4, SPX1^1–259 (C-terminally truncated …); test: ITC; PHR2^3M at 120 μM injected into SPX1^1–259 at 10 μM, in presence or absence of 1 mM InsP6; 25 °C; buffer F (20 mM HEPES/NaOH pH 7.5, 200 mM NaCl, 2 mM β-mercaptoethanol); settings: both partners purified

B1: PHR2^248–380 (domain or fragment)
chain: not shown
notes: PHR2 (OsPHR2), rice, residues 248-380; also called PHR2 (residues 248–380); not shown: His10, N-terminal, cleaved; MsyB, N-terminal, cleaved
- binding result [1]: binds
- binding result [2]: binds
- binding result [3]: binds

B4: PHR2^248–380 E353A (domain or fragment)
chain: not shown
notes: PHR2 (OsPHR2), rice, residues 248-380; not shown: His10, N-terminal, cleaved; MsyB, N-terminal, cleaved
- binding result [1]: binds

B5: PHR2^248–380 R248A (domain or fragment)
chain: not shown
notes: PHR2 (OsPHR2), rice, residues 248-380; also called PHR2 R248 mutant; not shown: His10, N-terminal, cleaved; MsyB, N-terminal, cleaved
- binding result [1]: binds

B6: PHR2^230–426 (MYB and CC domain-containing fragment of rice PHR2) (domain or fragment)
chain: not shown
notes: Alone in solution a mixture of dimer and tetramer; one copy in the complex with SPX1; not shown: His10, N-terminal, cleaved; MsyB, N-terminal, cleaved
- stoichiometry N [4]: 2 and 4
- stoichiometry N [5]: 1

B8: Arabidopsis PHR1^227–358 (MYB and CC domains only) (domain or fragment)
chain: not shown
notes: The methods describe only SPX1 and PHR2 constructs; also called AtPHR1
- stoichiometry N [4]: 2

Continued, values first:

- binding result [1]: binds
B2: PHR2^248–380 E363A (domain or fragment)
chain: not shown
notes: as for B4

- binding result [1]: binds
B3: PHR2^248–380 E257A (domain or fragment)
chain: not shown
notes: PHR2 (OsPHR2), rice, residues 248-380; also called PHR2 E257 mutant; not shown: His10, N-terminal, cleaved; MsyB, N-terminal, cleaved

- Kd [6]: ~170 nM
B7: PHR2^(230–426 L348A/L358A/I362A) (domain or fragment)
chain: not shown
notes: also called PHR2^3M; PHR2 monomeric mutant; not shown: His10, N-terminal, cleaved; MsyB, N-terminal, cleaved
